The series is described as follows: soluble on expression in E. coli; label from the status in PepcDB or PDB records.
Regarding “MAHHHHHHMSSHALSSGSAPNVSSATTGTVAQQADSLTRNLLLGIPKEGLSPDSPEAADLQAAEAFVSDIQQEILAYDIANAKAIELYAVRWWSAVPFFGRHAKRALAAESTAAAAAAAGETHESTEAAAAAVAVDGSANSSEGHGLRLSPEEAAAALQSGGAYLHRQTSQTPRGFKVERTSALDPGQLSQLAGGASGASESKAVPVPKVNTWLFRRQHPSWVPLMQRWWVPWLCCGSIVLIWTPDVWKLRTLYFCDHQYALLRQSIHKAYWWATMRPEDYAEHIAAIAAERPSRVRGTSCPFE”, the “soluble on expression in E. coli” value is given as “not soluble”.
To “MAHHHHHHMSSKKQDASAELLSELRAVIVSGGSMGTLDEQKVRSVVEKTNESYACIQSIATNPYADLTQPYYVSSVNYYRAKCLRDKRCLLTYLLWRQKQVAKAWWSVRDNLLEGSLSAAEAKYLSDYQGIMVEYMTSFDVPLDLRAYLWRPPSVRQLEVRGRCHYEFRSSVSGKTIIINIGDQLFLSFEEAEPLIQQGIVELVGH” belongs “not soluble”.
Consider “MAHHHHHHMSSYDAMSAVSSNGAVMPEINLHPRLMTHRPESDSYTGSARHSSRSTRAVPTNAELAYAGVTAQDGVVQQLSSRSEERGSLAGPREVSAQSNSGHRALRAITACGSIDEPLQLSEPHQGRAIRDTPREQKPQQHQSQPTRSISHGVVARNAAGAGSSREPIRPGRSSCSSTPRIPSKHNDPYAHVTSVVQEYRQSRINALEAQYRVAHTHSNTSVSQGYDTRQSQSASPRSLEARRNASAHSRASARPRDGSWRMSSVSSRTRQNSPLPRAVEEEYLRGGVPRAALDAPHIRYAEALYNMYNSSSSSARRLACMSSMSSNMTTEYVPDVAKRIPDRFKYVPPTEEERRLHREATLRALEEWRRRQCARENAHCKGSEDMAAGGAAVELRNRNPPKNQSGTRSQQPQQAGHEEAAAWALQKGFDNTSDSFSGQARDSFTPSKKCSARKAKKIRSAAEQRDDYPTNEGAGEWERPQSSVGKRSGTLISRRQNGAGLRASSRKGRKSPTESARVEDGMKLNSFREKLLFDIAPPTVSIA”, for which the “soluble on expression in E. coli” value was “not soluble”.
For “MAHHHHHHMSSYRSDVDPFKEIRVLPREAAQLRHHLSRINHALQTKYFVAAELSELALQPDRSDEFLALYKAEIYRVVAKLNMNAKKQYTVTVDPLRLTTGFEFKRGADRKDNLGTAVTAATVEGLTSPDVHAKWTASLVETSRLLAQQHAINPNCQALSSALQSTPSSQQTQGLNGGGGAAAVGSDVIGDASTCAIDSDVRKANKESFLFSTPPEFAGFAPSGASPGAP” the value was “not soluble”.
Consider “MAHHHHHHMSTRRLMHTMIRVGDLDRSIKFYTEALGMRLLRKWDCPEDKFTLVFLGYGTESETAVLELTYNYGQSEYKHGDAYGHIAIGVEDVNEEIARLKKMNVPIDYESEDGFMAFIVDPDGYYIELLNTERMLEKSREQMNEQGTA”, for which the “soluble on expression in E. coli” value is reported as “soluble”.
As to “MAHHHHHHMSTYVPKPSRDNVYRFFFTEGVIACKKDRMGTWTGTLGGNTFTVPCIQVMQLMRSLKSRNLIKEQYAWRHYYWTLNDEGIAYMRSYLHLAPSAMPNTQKPSSVNFEKVTEGRGRGRGRGGRGRGEGRGRGRGEGRGRGRGRGFGGERMNYRAAAATSDGEAAPAPAAE”, the “soluble on expression in E. coli” value is recorded as “soluble”.
For “MAHHHHHHMSVDFTSKAVDLLKRATTLDEAKEYEEAYRWYMDSIEVFMTAIKYENKNPTKKEMLKNKVRQVMERAKMIKEYLDGSKEGDSNVGNTGSTAQKTASASKKAKEEEEDKQRMRNALGGAIVRVKPNVNWSQIAGLEGAKEALKEAVILPVRFPQLFTGNRKPWKGILMYGPPGTGKSFLAKAVATEADGTFLSVSSADLMSRWLGDSEKLVRNLFEMAREAWKTDGKPAIIFIDEIDSMCSSRTDGENDALRRIKTEFLVQMQGVGHEDDGVLVLGATNIPWSLDSAVRRRFERRIYIPLPDVQARYQMFKIHIGDTPHTLTEKDWYELARMTDKYSGSDINIVVRNAMMECIRSVQVATHFKRVTGPDLKDPTRMTNNRLVPCSPGDPEGFAMTAQEITEPGLLMPLPVTMQDFVKALRTARPSVADDDITQHLKFTEEFGQEG” the value was “not soluble”; for “MAHHHHHHMTAALNRKFDLLQKSGTCPSYLLDVLTLLVAHANETELFKQELRSAPFENAAPPLRADRGMVAAAAPQPEMGTQTVTQPEAPGTEKEVLLAAERTLRAYASDLRKINDIAMATSSKKLREMKMSNFTEMAAFRDRVVSDAVDRAREELELLRMGWLESMNTEVERAKMEVHKVGLSSQKALHKMLEGYRDYVSDGFRLLKTEPLEVMHRAMAECAFCVERLKIMEQQVVPRIEIDALCGRLKSVERVIAQMLKKRHSSGVVDDEISVVPTAGPSETGASTAAAGDDRPLGLRLRDGGNDVEGLIVTEVAPNSLASKARISPGQIISHVGDALVTRRDDFTTAMQKTGSAAKLTIYDPETAVVRILTLKP”, “soluble”; for “MAHHHHHHMTEKENGNKDKRRKEKHRKHHRDRRESCNGVVNSSAAKTRPETAVAIEGADEEVENWDENRTRVDQLCQTYPNNMCNDCNNAGTRWASVNHGVFLCIRCSGIHRSLGVHVSKVKSANMDKWSAAEVHLMELIGNQRAKLLYEAHLPKDMKPMTFAESDATLQTFIQRKYQEKAFSVEAVDEKLRQYHKEARYGKKPKRNSSASRKKKANDGANDKAERSLKGEDTIKALYGSNAEVISKMSKRTGPIRGTFGVVNVGPEAYDERRKTLLEQFGFS”, “not soluble”.
To “MAHHHHHHMTELVPEAEVTFNCGSPSFPYVRVYRCFKTTNSGMLYRLEDDKGRWAFYNDTPLTVFNVYVKFNADSVVTSDTDVALEMTQGEWDYWATTVVLPGHTQRFVEGTISSFLLNFASEGELAKDVTFVNGTPTVGYDRVYRCFKQNANGMLFRLVKVERPGNECVWNFYNDSRELSVEVELTLIEKDSAKPLGDTQVIPPPDGVGVALYKIVVPPLKTVPFLRGHPRFSKQSYVAKSMYDENMLDASEITFENGQPDRAVIDYPRTKVFRGFNNNGNGLAFLLVDPEEKKWAFYNDTTNYNVTATVRFAAGSVYKAAANTRVEVDPAVEGGTVCTITVMPLATELFITEGNPEQYQISLSAECSTGPKPEENPDYQNGQPDTKVMLRWEKVYRCFKNRGNGLLFRLVGDNDRRWGFYNDTTDFIFTVTVSFENGETVKTLGNTSVSEDPELGKVFTLEVAPLSTEVFVFGDLSGYKTRFAARSVRCA” belongs “not soluble”.
For “MAHHHHHHMTILHNPGLPRVLNRITPQRLELTLMLIKERKKKLRYLGSYLQHYNDRTFLYNAMGGLNGTKFIIERHHHRAQYCHPTLHNERYSVRTIKMKGAQFDQVGNFTRNTWDCSVATTNLFQDATFRRHLSAIHKDEAIALLEGWGVKYVLLDEVRKPSVQDSIYVRHNLYIHKFPHIPDPVTNVYHGDADWKWKGDEKIDYTSYGASTKDERNTFQSLWSAAVRESKDSGVAKTVQAGKKL” the value was “not soluble”; for “MAHHHHHHMTLENKALLCLIKKYEEKNKFLNVVEYIHYVCTNLYSYEENLNYNIMYDEFLKDLKKYLKENILDYKHILENILLKTDINYVNEQNIVNDILSKKKIYDISFEEVKNTTMKSEYSMENIKTSVKTENKDISLNKEECNKDDHVQEDNIDKYNGLEGKNREKNICRNWKDEKSQHEFYQLQSFEKNENREWFRVDPNLNWKEKQQLIYNEIEKLKNEIKKITVHSESTKIIISSMICQSKIFLYELEDNIKDYKILKEKIMNDKYLLKKGDYINEVYNGIIQNQRIKIDNVKKTNKTLLNLYNKKFSNINYIISLNENINNVDFLYLNVLIHNRKETPQPYEQLQNKIPEYTNKEKEIFSNIEKNNDSLNLLDNLIVDITNKIDTNMDITNK”, “not soluble”; for “MAHHHHHHMTNVVECTFKTPPETAKAPDNAIIWNSFQYCDEKGWYSLTNHDEIMLRPTAFSDGRIKFLPQLEKIPEEFESVLCGKYDAKAWGKDDCNIVIEGDKDVHISLPGLQEKINYNHRERFPTFLKNWKIIVGMLNEHITVIRINTETAIIVSINEKSNVTVKCVNFNNGFLCVNPHTNLAIAYGDFALSELKKCELVPNITHEGAEWGFFVHLFKWGHIIIPKDIEIKLPSPGLKLIGKKIDTVAIISLPPNIYIHVKIDGPKCIRKLEYGQDYSITAIKSSESDIDIYLLFDGQLIKYEFSFDTRLNKVGKGRSINYAKLKCTNKSKEVTSFVFQATANSKLLLDSNCPTDNMGHLLCNQTISVFDAETGEYLSHPQGLQLTEVFNTLSYPPEKE”, “not soluble”.

Values taken from the DeepSol protein solubility set.
